Reference: article PMC12678408

Columns and labels:
[1] = target: peptidase domain (PD) of Pipistrellus abramus angiotensin-converting enzyme 2 (ACE2) (Pipistrellus abramus) (UniProt C7ECT9); experiment: BLI
[2] = target: peptidase domain (PD) of Pitta sordida ACE2 (Pitta sordida); experiment: BLI

RBD of BtPa-BetaCoV/GD2013 (GenBank accession: AIA62343.1) (domain or fragment)
Kd [1]: 0.0234 µM
Kd [2]: 0.138 µM
